Test results as given in patent US20140234213A1 (FOX CHASE CANCER CENTER, published 2014).

Biological target: T1, human Mullerian inhibiting substance Type II receptor (MISIIR) (human, UniProt Q16671 18-573)
T1 construct: whole, on cells; also called MIS type II receptor; AMHR2
T1 sequence (looked up): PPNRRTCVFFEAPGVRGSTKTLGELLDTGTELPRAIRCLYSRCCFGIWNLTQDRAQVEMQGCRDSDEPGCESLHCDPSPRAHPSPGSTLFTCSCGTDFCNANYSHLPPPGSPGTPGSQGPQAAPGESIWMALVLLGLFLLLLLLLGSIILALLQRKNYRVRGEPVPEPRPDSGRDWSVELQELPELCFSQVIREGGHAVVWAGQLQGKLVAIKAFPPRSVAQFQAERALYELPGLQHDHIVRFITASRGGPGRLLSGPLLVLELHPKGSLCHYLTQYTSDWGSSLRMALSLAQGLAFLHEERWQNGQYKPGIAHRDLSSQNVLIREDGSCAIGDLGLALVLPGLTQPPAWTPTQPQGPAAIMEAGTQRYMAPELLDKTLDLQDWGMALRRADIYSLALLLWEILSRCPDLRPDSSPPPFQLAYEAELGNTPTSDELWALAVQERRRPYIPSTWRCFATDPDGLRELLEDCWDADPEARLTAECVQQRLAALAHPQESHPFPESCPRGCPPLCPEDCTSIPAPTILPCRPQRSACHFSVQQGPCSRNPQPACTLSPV
Test: inferred by the filing from the reporter gene assay (block of MIS-induced signaling); no direct binding assay
Experimental: FIG. 3 provides a schematic of a reporter gene assay to measure MISIIR signaling. The Tlx-2 (T-cell leukemia, homeobox 2) gene is a downstream target of BMP and MIS signaling (Tang et al. (1998) Development 125:1877-1887). Genes encoding mouse TLX2-luciferase and human MISIIR were stably transfected into P19 mouse neuroblastoma cells that normally lack MISIIR.
The ability of the new hybrid scFv molecules to block MIS binding to MISIIR was determined using a reporter gene assay in which signaling through MISIIR on the surface of […] cells triggers luminescence in the cells (FIG. 3). MIS was added to the cells in the presence or absence of the different scFv molecules and the resulting luminescence was measured (FIG. 4).

B1: RAD-1-0003 (E3 1DQH3) scFv (scFv)
scFv: MAQVQLQQSGPGLVKPSQTLSLTCAISGDSVSSKSATWNWIRQSPSRGLEWLGRTYYRSKWYNDYAESVKSRITIKPDTTKNHFSLQLKSVTPEDTAVYYCASPPGGKLLISLSEERISAHHVPMDYWGQGTLVTVSSSASGAELGGGGSGGGGSGGGGSTSQAVLTQPSSASGTPGQRVTISCSGSSSNIGAGYDVHWYQQLPGTAPKLLIYGNSNRPSGVPDRFSGSKSGTSASLAITGLQAEDEADYYCQSYDSSLSAHNYVFGTGTKVTLLG
notes: Hybrid scFv on the E3 framework with the MIS loop in the heavy chain CDR3, in a different orientation than RAD-1-0001
- binding result: binds
